The target in assay [1] is T1, Human Solute Carrier Family 34 Member 2 (SLC34A2) (human, UniProt O95436 1-690).
T1 construct: Endogenous on OVCAR-3 cells; engineered on 786-O cells in the CAR kinetics assay; also called NaPi2b; NPT2B
T1 sequence: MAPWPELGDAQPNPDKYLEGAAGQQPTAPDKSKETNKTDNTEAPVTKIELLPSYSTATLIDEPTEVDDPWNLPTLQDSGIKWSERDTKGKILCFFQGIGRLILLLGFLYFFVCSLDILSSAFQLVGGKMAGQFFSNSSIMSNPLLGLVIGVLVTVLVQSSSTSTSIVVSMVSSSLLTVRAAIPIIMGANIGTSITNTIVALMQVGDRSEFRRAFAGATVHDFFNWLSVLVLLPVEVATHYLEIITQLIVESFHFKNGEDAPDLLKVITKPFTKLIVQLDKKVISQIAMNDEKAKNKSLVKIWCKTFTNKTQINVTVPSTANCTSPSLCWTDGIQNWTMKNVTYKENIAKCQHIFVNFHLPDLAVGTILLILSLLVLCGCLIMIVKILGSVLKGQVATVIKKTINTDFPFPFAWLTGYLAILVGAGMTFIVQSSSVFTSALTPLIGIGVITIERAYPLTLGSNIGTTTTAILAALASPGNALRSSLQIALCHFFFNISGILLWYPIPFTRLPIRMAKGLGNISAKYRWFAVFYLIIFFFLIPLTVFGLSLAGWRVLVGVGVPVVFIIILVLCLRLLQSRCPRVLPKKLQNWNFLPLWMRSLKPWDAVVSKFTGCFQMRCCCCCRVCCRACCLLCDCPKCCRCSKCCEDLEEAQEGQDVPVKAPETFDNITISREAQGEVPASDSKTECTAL
The assay can be described thus: flow cytometry on OVCAR-3 cells (endogenous human SLC34A2), hIgG1/kappa, 8 five-fold dilutions from 133 nM.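 Note: binding read as geometric mean fluorescence intensity, with non-transfected HEK293 cells serving as the negative control.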 A general note: Flow cytometry measures light scatter and fluorescence of single cells or particles in a stream.

The target in assay [2] is T2, SLC34A2 peptide fragment (peptide 1) (human, biotinylated (site not stated)).
T2 construct: ELISA antigen captured on NeutrAvidin plates; also called SLC34A2 peptide immunogen
T2 peptide: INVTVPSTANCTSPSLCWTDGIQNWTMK
Kind of assay: ELISA, biotinylated antigen on NeutrAvidin plate, anti-human Fc-HRP.

Assay [3] addresses T3, ECL-mFc fusion protein (human SLC34A2 ECL2 fused to murine Fc) (human, biotinylated (site not stated)).
T3 construct: The range 234-362 is the ECL2 part counted on human SLC34A2; also called mECL2-Fc protein
T3 chain: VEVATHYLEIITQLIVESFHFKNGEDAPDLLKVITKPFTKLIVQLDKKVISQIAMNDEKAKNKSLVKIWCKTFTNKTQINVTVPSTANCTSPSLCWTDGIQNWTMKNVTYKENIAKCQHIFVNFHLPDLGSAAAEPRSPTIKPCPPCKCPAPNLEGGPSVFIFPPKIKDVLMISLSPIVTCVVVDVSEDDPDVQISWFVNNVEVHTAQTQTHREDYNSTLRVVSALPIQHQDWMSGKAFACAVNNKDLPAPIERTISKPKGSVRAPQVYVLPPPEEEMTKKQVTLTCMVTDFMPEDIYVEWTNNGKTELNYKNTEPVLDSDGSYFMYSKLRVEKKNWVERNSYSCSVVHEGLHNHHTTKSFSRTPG
Described as above.

The text below walks through data of patent US20250297255A1 (ARSENAL BIOSCIENCES, published 2025).

B1: SLC34A2 Ab 12 (antibody, V domains shown)
VH: QVQLQESGPGLVKPSETLSLTCTVSGGSISSSSYYRGWIRQPPGKGLEWIGSIYYSGSTYYNPSLKSRVTISVDTSKNQFSLKLSSVTAADTAVYYCARHPRGSYGANFDYWGQGTLVTVSS
VL: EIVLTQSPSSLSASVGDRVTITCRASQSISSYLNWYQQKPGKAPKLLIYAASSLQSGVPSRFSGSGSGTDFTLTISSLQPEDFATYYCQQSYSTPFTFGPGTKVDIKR
notes: recombinant hIgG1/kappa from TAP products in Expi293
As to B1, the EC50 (usually the concentration needed to bring the measured effect to its halfway point) in assay [1] was found to be 5 nM. Moreover, the “Max Signal by flow cytometry” value in assay [1] was determined as 305. Besides, the binding result in assay [2] and in assay [3] was “binds” each time.
